From PMC2139957

Key:
[1] = steady-state domain-selective surface biotinylation, immunoblot; settings: glycan lost; control: ΔBS p75NTR
[2] = pulse-chase, ER-to-Golgi transport by O-glycan acquisition; settings: glycan lost; control: native rat p75NTR

Molecule: p75NTR (p75 neurotrophin receptor): N32D/ΔBS
- localisation_or_trafficking, other: percent apical [1]: no change, <10 vs <10

B1: p75NTR (p75 neurotrophin receptor): N32D (protein)
parent chain: MRRAGAACSAMDRLRLLLLLILGVSSGGAKETCSTGLYTHSGECCKACNLGEGVAQPCGANQTVCEPCLDNVTFSDVVSATEPCKPCTECLGLQSMSAPCVEADDAVCRCAYGYYQDEETGHCEACSVCEVGSGLVFSCQDKQNTVCEECPEGTYSDEANHVDPCLPCTVCEDTERQLRECTPWADAECEEIPGRWIPRSTPPEGSDSTAPSTQEPEVPPEQDLVPSTVADMVTTVMGSSQPVVTRGTTDNLIPVYCSILAAVVVGLVAYIAFKRWNSCKQNKQGANSRPVNQTPPPEGEKLHSDSGISVDSQSLHDQQTHTQTASGQALKGDGNLYSSLPLTKREEVEKLLNGDTWRHLAGELGYQPEHIDSFTHEACPVRALLASWGAQDSATLDALLAALRRIQRADIVESLCSESTATSPV
- localisation_or_trafficking, other: half-time of ER-to-Golgi transport [2]: no change, 35–40 vs 35–40
